Source: patent US20260167699A1 (Chugai, published 2026)

B1: GpH7-A5/GpH7-B3 variant H268_11K/GpL16-k0 (antibody, human IgG1, kappa)
heavy 1: not shown
heavy 2: not shown
light: DIVMTQSPLSLPVTPGEPASISCQASESLVHSNRNTYLHWYLQKPGQSPQLLIYKVSNRFSGVPDRFSGSGSGTDFTLKISRVEAEDVGVYYCSQNTHVPPTFGQGTKVEIERTVAAPSVFIFPPSDEQLKSGTASVVCLLNNFYPREAKVQWKVDNALQSGNSQESVTEQDSKDSTYSLSSTLTLSKADYEKHKVYACEVTHQGLSSPVTKSFNRGEC
notes: He Ab; copies: 1 + 1 + 2
B2: GpH7-A5/GpH7-B3 variant I332_19Q/GpL16-k0 (antibody, human IgG1, kappa)
heavy 1: not shown
heavy 2: not shown
light: B1 light
notes: He Ab; copies: 1 + 1 + 2
B3: GpH7-A5/GpH7-B3 variant H268_20W/GpL16-k0 (antibody, human IgG1, kappa)
heavy 1: not shown
heavy 2: not shown
light: B1 light
notes: He Ab; copies: 1 + 1 + 2
B4: GpH7-A5/GpH7-B3 variant K326_01G/GpL16-k0 (antibody, human IgG1, kappa)
heavy 1: not shown
heavy 2: not shown
light: B1 light
notes: He Ab; copies: 1 + 1 + 2
B5: GpH7-A5/GpH7-B3 variant H268_13S/GpL16-k0 (antibody, human IgG1, kappa)
heavy 1: not shown
heavy 2: not shown
light: B1 light
notes: He Ab; copies: 1 + 1 + 2
B6: GpH7-A5/GpH7-B3 variant I332_03V/GpL16-k0 (antibody, human IgG1, kappa)
heavy 1: not shown
heavy 2: not shown
light: B1 light
notes: He Ab; copies: 1 + 1 + 2
B7: GpH7-A5/GpH7-B3 variant I332_10E/GpL16-k0 (antibody, human IgG1, kappa)
heavy 1: not shown
heavy 2: not shown
light: B1 light
notes: He Ab; copies: 1 + 1 + 2
B8: GpH7-A5/GpH7-B3 variant K326_06M/GpL16-k0 (antibody, human IgG1, kappa)
heavy 1: not shown
heavy 2: not shown
light: B1 light
notes: He Ab; copies: 1 + 1 + 2
B9: GpH7-A5/GpH7-B3 variant I332_13S/GpL16-k0 (antibody, human IgG1, kappa)
heavy 1: not shown
heavy 2: not shown
light: B1 light
notes: He Ab; copies: 1 + 1 + 2
B10: GpH7-A5/GpH7-B3 variant K326_04F/GpL16-k0 (antibody, human IgG1, kappa)
heavy 1: not shown
heavy 2: not shown
light: B1 light
notes: He Ab; copies: 1 + 1 + 2
B11: GpH7-A5/GpH7-B3 variant I332_06M/GpL16-k0 (antibody, human IgG1, kappa)
heavy 1: not shown
heavy 2: not shown
light: B1 light
notes: He Ab; copies: 1 + 1 + 2
B12: GpH7-A5/GpH7-B3 variant K326_03V/GpL16-k0 (antibody, human IgG1, kappa)
heavy 1: not shown
heavy 2: not shown
light: B1 light
notes: He Ab; copies: 1 + 1 + 2
B13: GpH7-A5/GpH7-B3 variant H268_12R/GpL16-k0 (antibody, human IgG1, kappa)
heavy 1: not shown
heavy 2: not shown
light: B1 light
notes: He Ab; copies: 1 + 1 + 2
B14: GpH7-A5/GpH7-B3 variant K326_05P/GpL16-k0 (antibody, human IgG1, kappa)
heavy 1: not shown
heavy 2: not shown
light: B1 light
notes: He Ab; copies: 1 + 1 + 2
B15: GpH7-A5/GpH7-B3 variant I332_04F/GpL16-k0 (antibody, human IgG1, kappa)
heavy 1: not shown
heavy 2: not shown
light: B1 light
notes: He Ab; copies: 1 + 1 + 2
B16: GpH7-A5/GpH7-B3 variant I332_02A/GpL16-k0 (antibody, human IgG1, kappa)
heavy 1: not shown
heavy 2: not shown
light: B1 light
notes: He Ab; copies: 1 + 1 + 2
B17: GpH7-A5/GpH7-B3 variant H268_19Q/GpL16-k0 (antibody, human IgG1, kappa)
heavy 1: not shown
heavy 2: not shown
light: B1 light
notes: He Ab; copies: 1 + 1 + 2
B18: GpH7-A5/GpH7-B3 variant H268_18N/GpL16-k0 (antibody, human IgG1, kappa)
heavy 1: not shown
heavy 2: not shown
light: B1 light
notes: He Ab; copies: 1 + 1 + 2
B19: GpH7-A5/GpH7-B3 variant K326_02A/GpL16-k0 (antibody, human IgG1, kappa)
heavy 1: not shown
heavy 2: not shown
light: B1 light
notes: He Ab; copies: 1 + 1 + 2
B20: GpH7-A5/GpH7-B3 variant I332_14T/GpL16-k0 (antibody, human IgG1, kappa)
heavy 1: not shown
heavy 2: not shown
light: B1 light
notes: He Ab; copies: 1 + 1 + 2
B21: GpH7-A5/GpH7-B3 variant H268_15Y/GpL16-k0 (antibody, human IgG1, kappa)
heavy 1: not shown
heavy 2: not shown
light: B1 light
notes: He Ab; copies: 1 + 1 + 2
B22: GpH7-A5/GpH7-B3 variant I332_16H/GpL16-k0 (antibody, human IgG1, kappa)
heavy 1: not shown
heavy 2: not shown
light: B1 light
notes: He Ab; copies: 1 + 1 + 2
B23: GpH7-A5/GpH7-B3 variant H268_14T/GpL16-k0 (antibody, human IgG1, kappa)
heavy 1: not shown
heavy 2: not shown
light: B1 light
notes: He Ab; copies: 1 + 1 + 2

Each binder was assayed against T1, FcγRIIIa extracellular domain, C-terminal His tag (human, UniProt P08637 17-208) (assay: SPR, binding activity relative to GpH7-A5/GpH7-B3/GpL16-k0 (=100)).
T1 construct: extracellular domain; also called 3a
T1 sequence (P08637 other isoform, or with tags, fused parts or gaps): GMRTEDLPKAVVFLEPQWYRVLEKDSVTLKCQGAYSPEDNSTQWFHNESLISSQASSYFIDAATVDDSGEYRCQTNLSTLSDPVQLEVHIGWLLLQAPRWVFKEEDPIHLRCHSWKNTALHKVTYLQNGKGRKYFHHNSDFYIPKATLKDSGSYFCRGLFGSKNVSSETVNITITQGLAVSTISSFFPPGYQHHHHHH

Row | Binder | He/Con 3a
1 | B1 | 81.6%
2 | B2 | 101%
3 | B3 | 82%
4 | B4 | 114%
5 | B5 | 121%
6 | B6 | 85.2%
7 | B7 | 213%
8 | B8 | 127%
9 | B9 | 95.6%
10 | B10 | 114%
11 | B11 | 92.5%
12 | B12 | 135%
13 | B13 | 76%
14 | B14 | 117%
15 | B15 | 89.3%
16 | B16 | 103%
17 | B17 | 113%
18 | B18 | 103%
19 | B19 | 130%
20 | B20 | 110%
21 | B21 | 96.5%
22 | B22 | 89%
23 | B23 | 90.3%
